Assay results reported in paper PMC12350670, “The characterization of variable new antigen receptors targeting FAP isolated from a novel immunized library” (Communications Biology, 2025).

T1: FAP on hPrCSC-44 cells (human (endogenous in hPrCSC-44), UniProt Q12884 1-760)
T1 construct: also called endogenous FAP; source: endogenous, hPrCSC-44 immortalized cancer-associated fibroblast cells, on cells
T1 sequence (looked up): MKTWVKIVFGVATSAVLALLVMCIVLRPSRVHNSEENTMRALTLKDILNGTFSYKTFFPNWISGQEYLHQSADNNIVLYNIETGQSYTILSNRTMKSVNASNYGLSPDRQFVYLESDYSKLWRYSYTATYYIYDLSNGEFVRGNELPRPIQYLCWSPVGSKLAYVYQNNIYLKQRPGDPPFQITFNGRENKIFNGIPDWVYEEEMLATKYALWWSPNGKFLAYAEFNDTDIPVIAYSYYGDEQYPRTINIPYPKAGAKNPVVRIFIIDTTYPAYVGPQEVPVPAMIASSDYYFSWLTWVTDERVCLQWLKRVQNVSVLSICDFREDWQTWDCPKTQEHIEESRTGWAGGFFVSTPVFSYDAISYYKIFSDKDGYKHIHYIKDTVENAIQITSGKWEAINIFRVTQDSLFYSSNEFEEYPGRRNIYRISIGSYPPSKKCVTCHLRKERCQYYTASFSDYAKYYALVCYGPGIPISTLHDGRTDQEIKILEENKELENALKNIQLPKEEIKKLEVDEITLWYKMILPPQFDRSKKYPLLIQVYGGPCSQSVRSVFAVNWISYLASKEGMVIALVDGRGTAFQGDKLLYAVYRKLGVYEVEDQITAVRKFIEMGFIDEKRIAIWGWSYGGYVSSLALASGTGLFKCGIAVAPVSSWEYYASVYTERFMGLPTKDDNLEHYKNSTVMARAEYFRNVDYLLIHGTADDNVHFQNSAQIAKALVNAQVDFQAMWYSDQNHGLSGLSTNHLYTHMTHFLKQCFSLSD

T2: FAP on CWR-R1^FAP cells (human, UniProt Q12884 1-760)
T2 construct: also called CWR-R1-EnzR^FAP
T2 sequence (looked up): T1 sequence (looked up)

T3: recombinant human fibroblast activation protein (human, UniProt Q12884 39-757, biotin (EZ-link NHS-PEG4-biotin))
T3 construct: also called hFAP; human FAP; source: bought: Acro Biosystems
T3 sequence: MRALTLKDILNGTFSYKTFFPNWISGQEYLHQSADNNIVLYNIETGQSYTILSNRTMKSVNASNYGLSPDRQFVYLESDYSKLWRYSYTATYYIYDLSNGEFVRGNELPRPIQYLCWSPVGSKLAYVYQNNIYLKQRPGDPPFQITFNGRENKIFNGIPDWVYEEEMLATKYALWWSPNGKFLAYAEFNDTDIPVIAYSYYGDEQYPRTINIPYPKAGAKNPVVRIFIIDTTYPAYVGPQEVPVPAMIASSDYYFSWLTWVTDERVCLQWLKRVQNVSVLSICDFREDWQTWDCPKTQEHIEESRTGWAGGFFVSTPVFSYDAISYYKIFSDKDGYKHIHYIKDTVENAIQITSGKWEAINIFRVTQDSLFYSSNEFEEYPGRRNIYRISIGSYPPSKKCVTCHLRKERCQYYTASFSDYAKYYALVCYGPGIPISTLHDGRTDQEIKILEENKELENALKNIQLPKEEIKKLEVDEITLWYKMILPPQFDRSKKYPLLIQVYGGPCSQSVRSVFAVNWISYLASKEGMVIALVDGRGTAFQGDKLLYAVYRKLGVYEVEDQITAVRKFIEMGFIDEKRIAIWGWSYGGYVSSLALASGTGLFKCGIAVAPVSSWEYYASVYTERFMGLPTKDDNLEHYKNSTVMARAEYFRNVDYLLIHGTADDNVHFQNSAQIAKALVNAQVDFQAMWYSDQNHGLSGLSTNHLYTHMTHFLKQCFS

B1: H4-Fc (Fc fusion, nurse shark (Ginglymostoma cirratum))
chain: ARVDQTPQTITKETGESLTINCVLRDSNCALSSTYWYRKKSGSTNEESISKGGRYVETVNSGSKSFSLRINDLTVEDSGTYRCNVYVAGMSPCLSWGDVYGDGTAVTVN
notes: Bivalent human IgG1 Fc fusion (vector TGEX-SCblue); also called anti-FAP VNAR H4; VNAR-Fc; source: ExpiCHO-S, transfected, purified (protein A, SEC)
B2: NGS2405-Fc (Fc fusion, nurse shark (Ginglymostoma cirratum))
chain: ARVDQTPQTITKETGESLTINCVLRDSNCALSFTYWYRKKSGSTNEESISKGGRYVETVNSGSKSFSLRINDLTVEDSGTYRCNVYVGGGCPHWIDVYGDGTAVTVN
notes: Bivalent human IgG1 Fc fusion (vector TGEX-SCblue); also called VNAR-Fc; source: ExpiCHO-S, transfected, purified (protein A, SEC)

Assays:
FAP on hPrCSC-44 cells = molecular target: T1, FAP on hPrCSC-44 cells; assay: flow cytometry on cells; cells incubated with VNAR-Fc (several concentrations, or fixed 100 nM) 1 h on ice, detected with PE-labeled anti-human IgG Fc; KD from logistic fitting of mean fluorescence intensity; conditions: one partner purified
FAP on CWR-R1^FAP cells = molecular target: T2, FAP on CWR-R1^FAP cells; assay: as above; conditions: one partner purified
[1] = molecular target: T3, recombinant human fibroblast activation …; assay: BLI; biotinylated bait protein (30 nM) loaded on Octet streptavidin (SAX) biosensors; serially diluted VNAR-Fc (300-0.412 nM) as analyte; PBS with 1% BSA; kinetic analysis with a bivalent analyte model; conditions: both partners purified

Kd (FAP on hPrCSC-44 cells)	Kd (FAP on CWR-R1^FAP cells)	Kd [1]	Binder
15.6 nM	12 nM	0.0141 nM	B1
6.03 nM	8.44 nM	0.356 nM	B2
